Data as given in US9102763B2.

Target: T1, Syndecan-1
T1 sequence (P18827 whole entry, species assumed, looked up): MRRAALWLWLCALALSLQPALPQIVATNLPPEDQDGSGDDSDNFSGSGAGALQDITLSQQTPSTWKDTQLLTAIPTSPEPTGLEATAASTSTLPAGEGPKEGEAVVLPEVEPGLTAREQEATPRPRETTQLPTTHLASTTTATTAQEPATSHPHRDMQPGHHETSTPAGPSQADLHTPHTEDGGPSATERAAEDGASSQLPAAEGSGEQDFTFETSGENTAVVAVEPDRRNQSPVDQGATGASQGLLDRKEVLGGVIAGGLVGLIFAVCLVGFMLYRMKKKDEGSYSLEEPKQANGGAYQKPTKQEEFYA

minimal therapeutic concentration (β-hexosaminidase secretion, rabbit LGACs): 10 µM
B1: lacritin (free lacritin released from Lac-ELP by thrombin cleavage) (ligand)
chain: MEDASSDSTGADPAQEAGTSKPNEEISGPAEPASPPETTTTAQETSAAAVQGTAKVTSSRQELNPLKSIVEKSILLTEQALAKAGKGMHGGVPGGKQFIENGSEFAQKLLKKFSLLKPWAGLVPR
